The series is described as follows: amyloid nucleation score (Sup35N fusion, yeast selection) (log enrichment); library NNK3; higher = more nucleation; inactive = no reads after selection. An outline of the steps: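 The nucleation score equals the log enrichment of output over input reads from DiMSum, centred on the mode score of non-aggregating sequences. It was computed only for sequences with 100 or more input reads. The reads came from Illumina sequencing of plasmid inserts from psi-negative yeast expressing Sup35N fused to peptides of 20 random codons, induced with 100 μM copper sulfate for 24 hours and grown 7 days at 30°C without adenine and uracil.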

± gives the uncertainty stated by the source.

As to YALCPVRPGSQQGKLGVTFL, the amyloid nucleation score was 0.503 ± 0.45.
To VRRIIML belongs “inactive”.
Consider LGGLCPCF, for which the amyloid nucleation score entry was “inactive”.
Consider LSCSQKV, for which the amyloid nucleation score result was “inactive”.
Turning to SRGLYKYLGLRFFMYGRVLR, the amyloid nucleation score result is “inactive”.
To YHCSLQIFVLNSWMSSYKWS belongs 1.86 ± 0.098; to MRASCCKCVHICTYMSDRFD, 0.743 ± 0.22; to HIVSRP, “inactive”.
The entry for PLGVRQQWEGSQVDPCGLRA is “inactive”.
With MGMEIEQYNFTALLRD, the amyloid nucleation score entry was “inactive”.
To FSPFNAENSETVTCTGCSHC belongs “inactive”.
To WNMSVRRISYEDL belongs “inactive”.
The entry for PTTMVPQPRPYSLRRTLAY is “inactive”; for PWSLWRTVKSPRKGGEQPRS it is -0.317 ± 1.1.
NIAIGLYRFKMLDGKRSCML: the amyloid nucleation score result was “inactive”.
To IMTSFPGEFPLSLHNMCASC belongs “inactive”; to THCFNYILYSCSRAQSSCKY, 2.29 ± 0.059.
The entry for SVRYTV is “inactive”; for GDFSSCL it is “inactive”.
The figure for MPSRCMLDSTIILYYWRFEH is 0.781 ± 0.28; for GSFYCLYFVGDVIIILTCLR it is “inactive”; for NRTRCGDYILGCQSSFDTCH it is “inactive”.
With RMFVI, the amyloid nucleation score entry is “inactive”.
The entry for RCVRVIFSVMGDWVFISKNE is “inactive”; for EYESMI it is “inactive”.
The figure for FAYVLFATFS is -0.353 ± 1.2.
Regarding EVYYPDVNLLEPGAVKLGRH, the amyloid nucleation score result is “inactive”.
To TVMLWAWEGRWYVRFVSPDR belongs “inactive”; to IGSPSHLYKYHCVGFRVSSQ, “inactive”.
In the case of VDSSGLV, the amyloid nucleation score result was “inactive”.
As for VCLKVQWDYCIRLWVGMSYD, the amyloid nucleation score result is “inactive”.
To FYMISPTISFLLFGLLANI belongs “inactive”.
The entry for FWNVCLDCISR is “inactive”; for VIMADA it is “inactive”; for LSMCSLHRNTVFWFRISLMI it is “inactive”.
The entry for FKIEDQYNLMHRVFLVSNGG is “inactive”; for AMSIVERQGDVWLSYRKWNG it is “inactive”.
For the substance RHSNMSRIPMVLNKEKPGTR, the amyloid nucleation score result is “inactive”.
The substance VFYFDSFRICSYVVLYGHMA gave an amyloid nucleation score of 0.601 ± 0.28.
For LNMARDYFVFQSPADPGCLV, the amyloid nucleation score result is “inactive”.
To WSFCGLYLNI belongs 1.62 ± 0.095; to RYTIGFHLSMDSAYSISFYP, “inactive”; to IGSNRRSFEVCTYIASKIPL, “inactive”.
With SFAKHHDMK, the amyloid nucleation score result is “inactive”.
For the substance VFEVVYV, the amyloid nucleation score entry is “inactive”.
The entry for KLVCRIIDAKAH is “inactive”; for LMYRYVTLNAFRESISYISS it is “inactive”; for VLIYLDRCRNFDEKGFHNFC it is 0.448 ± 0.21.
The entry for WYRLLYKVEYNFKGWSVFVR is “inactive”.
For the substance AVVLFLGTLQLGCLGLIVQL, the amyloid nucleation score is -0.424 ± 0.75.
The entry for PLAGLELCMRRRWVEE is “inactive”; for TVCVWSVKVMP it is -0.492 ± 0.66.
The figure for NYFGLWGCHTCITCYPVTLV is 1.29 ± 0.13.
To VSSTALGGNNSICHLSPFYT belongs “inactive”; to CFAVWHISVEMYVRDRW, “inactive”.
Consider RAECSISSIIIYCAGRPSLI, for which the amyloid nucleation score is 1.07 ± 0.098.
With LIRGK, the amyloid nucleation score result is “inactive”.
To PDSKWVFRNAALMTETCIGR belongs “inactive”; to ECGFKKR, -0.383 ± 1.3; to GLNDHSLI, “inactive”.
TIIMR: the amyloid nucleation score result was “inactive”.
To GPSLYINLMRVGCRRGHLFL belongs 1.46 ± 0.12; to KVRSARVRMHHNRYDKEMSG, “inactive”.
The entry for TLTLAFARGDAYPSIARLV is “inactive”; for RTLNYFSHVCQSSINWSSLV it is 0.743 ± 0.16.
The entry for RVNNGT is “inactive”; for WCDYMKNPCSFEGKFLWRWP it is “inactive”.
For HLRWMTEKGPVRNVCVRGCH, the amyloid nucleation score result was “inactive”.
Consider ANGLWKRIAFEGTARCEGMG, for which the amyloid nucleation score result was “inactive”.
The figure for CSLTRFRWGYRTFEDNAPFH is 1.57 ± 0.075.
NLWVADWIEHHYPSRSSIFA: the amyloid nucleation score entry was “inactive”.
The entry for GVVLSYNGTFWRVLINHHMC is “inactive”; for VSHRYFTGRMIALIRGDCLV it is “inactive”.
The entry for HFFLLMLSYSYYDCVFRYKC is “inactive”; for KLPVKGRMPVVF it is “inactive”.
To FESSGAGRFRSIWYGYMRVF belongs “inactive”; to FPRHCKPRCL, “inactive”; to HISGYNDYMFDP, “inactive”.
Regarding RRSTQLKRQYKSL, the amyloid nucleation score result is “inactive”.
On to AEWWSTVCH, for which the amyloid nucleation score entry was “inactive”.
The entry for VNQLPRVSGAPIGLLWVCVK is “inactive”; for ILYLVR it is “inactive”.
The figure for YGIYWSETFRNSLCKIVNIL is 0.66 ± 0.24.
The entry for VLSRSKRTGISNYLCNLCEI is “inactive”.
Regarding NYSRFGNKKFYHP, the amyloid nucleation score entry was “inactive”.
To FIMMRIMSFPISHVCV belongs 0.708 ± 0.27; to CNSETRAFYYLALWVLFFFN, “inactive”.
LHGNYVGQLLDLEIPVRGWI: the amyloid nucleation score entry is “inactive”.
To VYIRSFRSCTWRSLPMRIRY belongs “inactive”; to LLGMLIRGDAF, “inactive”.
To MQWNWEGSLYMKIMSGMCHP belongs 1.02 ± 0.15; to MELCTLMCHYVVYSVVNWTY, “inactive”; to FSWMC, “inactive”.
To VVLFKISSYPRHIHFGFHLL belongs “inactive”; to KFNSRNRS, “inactive”.
For LFEHLRW, the amyloid nucleation score was determined as 0.685 ± 0.2.
To IRITNDNFVVRLVSQTVGLK belongs “inactive”.
To SCRDDLLVMSKVTLITMT belongs “inactive”; to NSIAYMVWILALDCCNWGSQ, 2.85 ± 0.07; to YVDIY, “inactive”.
Regarding YINSATRFDKFM, the amyloid nucleation score entry is “inactive”.
The entry for PKCRMSMA is “inactive”; for QSFIRSFIVYVKDALGAHHG it is “inactive”; for FLYYIPWDYL it is “inactive”.
The entry for SQHHPSGSSMWGKWIMLDPR is “inactive”; for YRNVGHVCFDVEYPRVLFFA it is “inactive”; for YRPSIRLTGCLSSLYTLFYG it is 1.92 ± 0.062.
The entry for SYMPGNLSGLWAHLLMEKNC is “inactive”.
For the substance IIFDR, the amyloid nucleation score entry is “inactive”.
The entry for LWWISWRRGSQSMVVSG is “inactive”.
Consider MTLFVSDTVRSLGNGNWA, for which the amyloid nucleation score result was “inactive”.
On to RQIMGQKRKNRQESFGFVGC, for which the amyloid nucleation score entry is “inactive”.
Take FILSAGSLHQLGRLVES: the amyloid nucleation score entry is “inactive”.
To AMQAAPVCRRYAVVTTHFDH belongs “inactive”; to MSSGLTVSNVL, “inactive”; to INGDMFSSFENVCYYEVSSL, -0.325 ± 0.3.
With FCSVIFLISIYCTRFSLVYD, the amyloid nucleation score entry was “inactive”.
HRDNLWRWNFFCPNY: the amyloid nucleation score was 0.993 ± 0.12.
As for FLYRDSSCRLSLM, the amyloid nucleation score result is “inactive”.
For the substance LRQSTSMPCNFCIYLEERKD, the amyloid nucleation score came out at 1.43 ± 0.073.
The entry for LSDSY is “inactive”.
For the substance MVNLSLCLNVVAEGLNFDRF, the amyloid nucleation score was 1.66 ± 0.091.
Turning to IPTIVPLAQLRVSVTSVWNL, the amyloid nucleation score entry is “inactive”.
To IALKSGMVCRYRYHIGGRIS belongs “inactive”.
To GVKVSDMSPDRDNLWFSRCS belongs “inactive”.
On to YITMNVHSRDASVRWLDF, for which the amyloid nucleation score result was “inactive”.
Turning to VSRMARYRLLTYRSAFNSML, the amyloid nucleation score is -0.605 ± 1.2.
With CSTFNFRGNTIHLNLCWEVI, the amyloid nucleation score turned out to be 0.424 ± 0.71.
To VYVCYIL belongs 1.73 ± 0.077; to ASFYWECMYVHGDVFLCVWY, 1.79 ± 0.1; to RGMWSFHGYWRTGKYMATGG, “inactive”.
Consider DSPMKLSALSHM, for which the amyloid nucleation score is -0.261 ± 0.96.
On to VYDMCGNLQWAL, for which the amyloid nucleation score result is “inactive”.

For the origin of these results see the supplement of paper PMC12042874.
